Measurements reported in patent US20210301025A1 (published 2021).

How the values were obtained:
[1] = biological target: T1, human c-Met on cells (NCI-H441, NCI-H292, U87-MG) (human, UniProt P08581 25-1390); experiment: cell-based or functional assay
[2] = biological target: T2, recombinant c-Met extracellular domain (human, UniProt P08581 16-932); experiment: SPR kinetic analysis as in Example 2
T2 construct: Construct used for SPR is not described further (may be the Fc chimera, as the protocol captures on anti-human Fc)

[3] = biological target: T3, Recombinant human c-Met Fc chimera (human, UniProt P08581 16-932); experiment: competition with biotinylated HGF on plate-coated c-Met-Fc
T3 construct: whole c-Met entry named; also called c-Met-Fc fusion protein

[4] = biological target: T1, human c-Met on cells (NCI-H441, …); experiment: cell-based or functional assay; remark: listed apart in the source
[5] = biological target: T1, human c-Met on cells (NCI-H441, …); experiment: NCI-H441 cell binding, anti-His fluorescence
Experimental: Purified FN3 domains (50 μL/well; 0 to 1000 nM) were added to the cells for 1 hour at 4° C. in duplicate plates. Supernatant was removed and cells were washed three times with FACS stain buffer (150 μL/well, BD Biosciences, cat #554657). Cells were incubated with biotinylated-anti HIS antibody (diluted 1:160 in FACS stain buffer, 50 μL/well, R&D Systems, cat # BAM050) for 30 minutes at 4° C. Cells were washed three times with FACS stain buffer (150 μL/well), after which wells were incubated with anti mouse IgG1-Alexa 488 conjugated antibody (diluted 1:80 in FACS stain buffer, 50 μL/well, Life Technologies, cat # A21121) for 30 minutes at 4° C. Cells were washed three times with FACS stain buffer (150 μL/well) and left in FACS stain buffer (50 μL/well). Total fluorescence was determined using an Acumen eX3 reader. Data were plotted as raw fluorescence signal against the logarithm of the FN3 domain molar concentration and fitted to a sigmoidal dose-response curve with variable slope using GraphPad Prism 4 (GraphPad Software) to calculate EC₅₀ values.

[6] = biological target: T1, human c-Met on cells (NCI-H441, …); experiment: cell-based or functional assay; remark: listed apart in the source
[7] = biological target: human EGFR on cells (A431, NCI-H292, NCI-H322, NCI-H441) (human, UniProt P00533 25-1210); experiment: cell-based or functional assay
[8] = biological target: EGFR (form used in the assay not stated) (human, UniProt P00533 25-645, limits assumed); experiment: affinity quoted in text, assay not stated

B1: P114AR5P74-A5 (designed binder, not shown: small tags and cut ends)
chain: LPAPKNLVVSRVTEDSARLSWTAPDAAFDSFWIRYDEVVVGGEAIVLTVPGSERSYDLTGLKPGTEYYVNILGVKGGSISVPLSAIFTT
IC50 of inhibition of c-Met phosphorylation, NCI-H292 cells [1]: 610 nM | Kd [2]: 10.1 nM | IC50 [3]: 5.2 nM | Inhibition of proliferation of U87-MG cells IC50 [4]: 464 nM | pMet inhibition in H441 cells IC50 [4]: 1.08 µM | EC50 [5]: 18.7 nM

B2: ECB147v7-PEG24 (designed binder)
chain: MLPAPKNLVVSEVTEDSARLSWDDPWAFYESFLIQYQESEKVGEAIVLTVPGSERSYDLTGLKPGTEYTVSIYGVHNVYKDTNMRGLPLSAIFTTAPCPAPAPAPLPAPKNLVVSRVTEDSARLSWTAPDAAFDSFWIRYFEFLGSGEAIVLTVPGSERSYDLTGLKPGTEYVVNIMSVKGGSISPPLSAIFTTAPCPAPAPAPLAEAKVLANRELDKYGVSDYYKNLINNAKTVEGVKALLDEILAALP
modifications: PEG24-maleimide on the engineered cysteines
IC50 of inhibition of HGF-stimulated c-Met phosphorylation, NCI-H292 cells [6]: 0.5 nM | IC50 of inhibition of EGF-stimulated EGFR phosphorylation, NCI-H292 cells [7]: 1.4 nM

B3: P53A1R5-17v2 (designed binder)
chain: LPAPKNLVVSEVTEDSARLSWADPHGFYDSFLIQYQESEKVGEAIVLTVPGSERSYDLTGLKPGTEYTVSIYGVHNVYKDTNMRGLPLSAIFTT
Kd [8]: 1.9 nM
